Columns and labels:
Experiment in all cases: two-hybrid library CCNG1;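 further: natural log of median RNA to DNA barcode read ratio; higher means stronger binding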
[1] = molecular target: T1, 4H491-bA
T1 chain: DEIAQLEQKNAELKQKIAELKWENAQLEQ

[2] = molecular target: T2, 4H48-bA
T2 chain: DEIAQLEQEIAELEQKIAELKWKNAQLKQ

[3] = molecular target: T3, 4H2944-bA
T3 chain: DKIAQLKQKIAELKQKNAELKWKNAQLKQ

[4] = molecular target: T4, 4H2937-bA
T4 chain: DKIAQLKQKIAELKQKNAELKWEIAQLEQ

[5] = molecular target: T5, 4H342-bA
T5 chain: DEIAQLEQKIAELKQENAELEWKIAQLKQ

[6] = molecular target: T6, P3SHb
T6 chain: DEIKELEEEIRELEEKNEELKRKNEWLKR

[7] = molecular target: T7, P5SHb
T7 chain: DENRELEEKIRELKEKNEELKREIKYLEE

[8] = molecular target: T8, P1SHb
T8 chain: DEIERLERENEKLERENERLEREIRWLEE

[9] = molecular target: T9, P2SHb
T9 chain: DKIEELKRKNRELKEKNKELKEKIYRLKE

[10] = molecular target: T10, P9SHb
T10 chain: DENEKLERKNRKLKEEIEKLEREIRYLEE

[11] = molecular target: T11, P6SHb
T11 chain: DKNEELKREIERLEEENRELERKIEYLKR

[12] = molecular target: T12, P4SHb
T12 chain: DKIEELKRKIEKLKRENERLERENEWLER

[13] = molecular target: T13, P8SHb
T13 chain: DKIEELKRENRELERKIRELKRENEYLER

[14] = molecular target: T14, P7SHb
T14 chain: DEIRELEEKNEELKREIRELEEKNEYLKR

[15] = molecular target: T15, 4H342-bH
T15 chain: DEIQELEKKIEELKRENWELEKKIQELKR

[16] = molecular target: T16, 4H2944-bH
T16 chain: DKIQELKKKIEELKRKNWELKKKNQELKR

[17] = molecular target: T17, 4H48-bH
T17 chain: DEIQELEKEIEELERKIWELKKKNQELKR

[18] = molecular target: T18, 4H491-bH
T18 chain: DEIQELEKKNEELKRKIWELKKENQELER

[19] = molecular target: T19, 4H2937-bH
T19 chain: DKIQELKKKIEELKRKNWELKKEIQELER

Question: What does the source list for DKIAQLKQKIAELKQKNAELKWEIAQLEQ [4H2937-bA]?
Answer: interaction score [1]: -0.0219; interaction score [2]: 0.573; interaction score [3]: -0.548; interaction score [4]: -0.419; interaction score [5]: 1.61

Question: Which results are given for DEIERLERENEKLERENERLEREIRWLEE [P1SHb]?
Answer: interaction score [6]: -1.76; interaction score [7]: -0.59; interaction score [8]: -1.02; interaction score [9]: 1.75; interaction score [10]: -0.505; interaction score [11]: -0.147; interaction score [12]: -0.498; interaction score [13]: -0.756; interaction score [14]: -0.298

Question: For DKIQELKKKIEELKRKNWELKKEIQELER [4H2937-bH], which interaction score [15] is on record?
Answer: Its interaction score is 1.21.

Question: What about the interaction score [16] of the same binder?
Answer: Its interaction score is -0.833.

Question: What about the interaction score [17] of the same binder?
Answer: Its interaction score is 0.185.

Question: And the interaction score [18]?
Answer: Its interaction score is 0.828.

Question: And the interaction score [19]?
Answer: Its interaction score is 0.307.
